# Assay results as given in article PMC4874009, “Super-resolution microscopy reveals structural diversity in molecular exchange among peptide amphiphile nanofibres” (Nature Communications, 2016).
# The star is where a group is joined. Cy3 = disulfo-cyanine carboxylic acid dye; Cy5 = disulfo-cyanine carboxylic acid dye; Palmitoyl = CCCCCCCCCCCCCCCC(=O)*
# B1: peptide amphiphile labelled with the sulfonated cyanine dye Cy3 (peptide)
# peptide: Palmitoyl-AAAAAAEEEK(Cy3)-NH2
# notes: designed peptide amphiphile; Made on MBHA rink amide resin, so the C-terminus is probably an amide (surmised); also called Cy3-PA; PA-Cy3; source: synthetic peptide (Fmoc solid-phase synthesis, purified by reversed-phase HPLC)
# B2: peptide amphiphile labelled with the sulfonated cyanine dye Cy5 (peptide)
# peptide: Palmitoyl-AAAAAAEEEK(Cy5)-NH2
# notes: designed peptide amphiphile; Made on MBHA rink amide resin, so the C-terminus is probably an amide (surmised); also called Cy5-PA; PA-Cy5; source: synthetic peptide (Fmoc solid-phase synthesis, purified by reversed-phase HPLC)
# Columns and labels:
# [1] = biological target: T1, non-labelled peptide amphiphile (palmitic acid tail, six alanines, three glutamic acids); assay: FRET or BRET; nanofibres co-assembled from non-labelled PA with Cy3-PA (1 mol%) and Cy5-PA (0, 0.1, 0.2 and 0.5 mol%); 10 mM HEPES pH 7.5, NaCl 150 mM, final PA concentration 0.5 mM; emission spectra at the Cy3 excitation wavelength 520 nm; details: both partners purified
# T1 construct: designed peptide amphiphile, not a stretch of a natural protein; also called non-labelled PA; unlabelled PA; source: synthetic peptide (Fmoc solid-phase synthesis, purified by reversed-phase HPLC)
# T1 peptide: Palmitoyl-AAAAAAEEE-NH2
# [2] = biological target: B1; assay: as above; details: both partners purified
binding result [1],binding result [2],Binder
binds,,B1
binds,binds,B2
